Data on one protein can be found in paper doi:10.1101/2021.03.15.435402, “GTP and lipids control self-assembly and functional promiscuity of Dynamin2 molecular machinery” (bioRxiv, 2021).

Series [1] deals with the molecule itself. Briefly: single-molecule fluorescence microscopy (oligomer size from mEGFP intensity); Dyn2-mEGFP (10-20 nM) premixed with 0.2 mM LUVs (Rh-DOPE) added to nanotubes, no GTP; mEGFP fluorescence colocalized with LUVs tethered to the nanotube.
Series [2] concerns the molecule itself. Briefly: single-molecule fluorescence microscopy (oligomer size from mEGFP intensity); Dyn2-mEGFP 20 nM pulse-perfused on membrane nanotubes (40 mol% PE, 0.1 mol% Cy5-PE), protein washed off from the bulk, no nucleotide (apo); total fluorescence divided by the mean intensity of a single mEGFP.

B1: Dyn2 labeled with monomeric GFP (Dyn2-mEGFP) (natural protein, UniProt P50570 1-870, looked up)
chain: MGNRGMEELIPLVNKLQDAFSSIGQSCHLDLPQIAVVGGQSAGKSSVLENFVGRDFLPRGSGIVTRRPLILQLIFSKTEHAEFLHCKSKKFTDFDEVRQEIEAETDRVTGTNKGISPVPINLRVYSPHVLNLTLIDLPGITKVPVGDQPPDIEYQIKDMILQFISRESSLILAVTPANMDLANSDALKLAKEVDPQGLRTIGVITKLDLMDEGTDARDVLENKLLPLRRGYIGVVNRSQKDIEGKKDIRAALAAERKFFLSHPAYRHMADRMGTPHLQKTLNQQLTNHIRESLPALRSKLQSQLLSLEKEVEEYKNFRPDDPTRKTKALLQMVQQFGVDFEKRIEGSGDQVDTLELSGGARINRIFHERFPFELVKMEFDEKDLRREISYAIKNIHGVRTGLFTPDLAFEAIVKKQVVKLKEPCLKCVDLVIQELINTVRQCTSKLSSYPRLREETERIVTTYIREREGRTKDQILLLIDIEQSYINTNHEDFIGFANAQQRSTQLNKKRAIPNQGEILVIRRGWLTINNISLMKGGSKEYWFVLTAESLSWYKDEEEKEKKYMLPLDNLKIRDVEKGFMSNKHVFAIFNTEQRNVYKDLRQIELACDSQEDVDSWKASFLRAGVYPEKDQAENEDGAQENTFSMDPQLERQVETIRNLVDSYVAIINKSIRDLMPKTIMHLMINNTKAFIHHELLAYLYSSADQSSLMEESADQAQRRDDMLRMYHALKEALNIIGDISTSTVSTPVPPPVDDTWLQSASSHSPTPQRRPVSSIHPPGRPPAVRGPTPGPPLIPVPVGAAASFSAPPIPSRPGPQSVFANSDLFPAPPQIPSRPVRIPPGIPPGVPSRRPPAAPSRPTIIRPAEPSLLD
notes: Dynamin 2 (Dyn2) fused to monomeric EGFP; source: purified
For orientation: stoichiometry N means the number of molecules, sites or subunits per partner or assembly. B1: the results for the “stoichiometry N” value in series [1] and in series [2] were 38 ± 16 molecules and 12 ± 6 mEGFP units, respectively.
